# Reference: PMC4324353 (Journal of molecular biology, 2014)
# Molecular target: latrunculin B bound actin (A. castellani actin monomer) (A. castellani)
# Experiment: fluorescence polarisation
row,Binder,stoichiometry N
1,SD3C (Spir SD and SC reversed around Linker 3) (domain or fragment) PREQLMESIRKGKELKQISDRQLGPPRMCEPSKKDAHAMILEFIRSRPPLKKA,1 actin monomer per construct
2,SC[gs]D (Spir SC and SD with Linker 3 replaced by five Gly-Ser repeats) (domain or fragment) KKDAHAMILEFIRSRPPLKKAGSGSGSGSGSPREQLMESIRKGKELKQITPPE,1 actin monomer per construct
